# Reference: paper PMC8809517, “Cofactor-independent RNA editing by a synthetic S-type PPR protein”
# Positions count from the first letter of the chain named.
# T1: GFP-9S library array, motif 4 ND N98M;D124H (synthetic construct, N98M;D124H)
# T1 chain: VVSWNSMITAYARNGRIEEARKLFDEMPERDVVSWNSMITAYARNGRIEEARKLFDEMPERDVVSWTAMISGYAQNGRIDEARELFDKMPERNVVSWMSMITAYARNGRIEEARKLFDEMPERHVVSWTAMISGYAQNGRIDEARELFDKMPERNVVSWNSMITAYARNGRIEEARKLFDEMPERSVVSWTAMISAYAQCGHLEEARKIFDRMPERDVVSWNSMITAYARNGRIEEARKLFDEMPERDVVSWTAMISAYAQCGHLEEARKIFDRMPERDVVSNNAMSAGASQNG
# T2: GFP-9S library array, motif 4 ND N98R;D124W (synthetic construct, N98R;D124W)
# T2 chain: T1 chain with M98R, H124W
# T3: GFP-9S library array, motif 4 ND N98Q;D124R (synthetic construct, N98Q;D124R)
# T3 chain: T1 chain with M98Q, H124R
# T4: GFP-9S library array, motif 4 ND N98P;D124Y (synthetic construct, N98P;D124Y)
# T4 chain: T1 chain with M98P, H124Y
# T5: GFP-9S library array, motif 4 ND N98M;D124E (synthetic construct, N98M;D124E)
# T5 chain: T1 chain with H124E
# Legend:
# Test in all cases: high-throughput RNA pulldown from lysate on Ni-NTA beads; HRP: 50 mM Tris pH 8, 150 mM NaCl, 1 mM beta-mercaptoethanol, 50 ug/ml BSA, 3 ug/ml yeast RNA, 0.5% heparin; ITC and FP: Tris pH 8, 200 mM KCl, 5% glycerol; MST: 50 mM Tris pH 8, 200 mM NaCl, 1 mM DTT, BSA, heparin, 0.05% Tween 20
# Conditions in all cases: tags: N-terminal His-eGFP
# [1] = target: T1, GFP-9S library array, motif 4 ND …
# [2] = target: T2, GFP-9S library array, motif 4 ND …
# [3] = target: T3, GFP-9S library array, motif 4 ND …
# [4] = target: T4, GFP-9S library array, motif 4 ND …
# [5] = target: T5, GFP-9S library array, motif 4 ND …
Binder,Kd ([1]; label: 5' IRDye 800CW),Kd ([2]; label: 5' IRDye 800CW),Kd ([3]; label: 5' IRDye 800CW),Kd ([4]; label: 5' IRDye 800CW),Kd ([5]; label: 5' IRDye 800CW),Kd ([1]; label: 5' Cy5),Kd ([2]; label: 5' Cy5),Kd ([3]; label: 5' Cy5),Kd ([4]; label: 5' Cy5),Kd ([5]; label: 5' Cy5)
AUUAAACGUGA (ssRNA) [IR-rpoA-A],574 nM,249 nM,201 nM,416 nM,264 nM,–,–,–,–,–
AUUAGACGUGA (ssRNA) [Cy5-rpoA-G],–,–,–,–,–,257 nM,88.7 nM,77.7 nM,168 nM,89 nM
AUUACACGUGA (ssRNA) [Cy5-rpoA],–,–,–,–,–,242 nM,147 nM,95.2 nM,146 nM,117 nM
AUUAUACGUGA (ssRNA) [IR-rpoA-U],412 nM,337 nM,138 nM,299 nM,158 nM,–,–,–,–,–
